Where a chain is given by its changes, count along the chain named. Numbers in names are those of the source.
T1: cynomolgus SIRP-α D1 domain (SEQ ID NO:11) (cynomolgus, UniProt Q5TFQ8 30-148 (human entry), limits assumed)
T1 construct: also called cyno1
T1 chain: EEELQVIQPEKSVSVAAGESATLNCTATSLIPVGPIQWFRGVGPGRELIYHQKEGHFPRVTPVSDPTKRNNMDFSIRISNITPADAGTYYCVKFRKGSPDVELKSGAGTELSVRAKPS

T2: mouse 129 SIRP-α (mouse (129 strain), UniProt P97797 32-150)
T2 construct: also called m129
T2 chain: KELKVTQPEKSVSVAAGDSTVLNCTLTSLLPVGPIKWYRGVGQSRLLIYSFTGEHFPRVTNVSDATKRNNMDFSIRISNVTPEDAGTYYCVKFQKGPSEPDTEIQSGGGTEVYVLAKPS

T3: cynomolgus SIRP-α (cynomolgus monkey, UniProt Q5TFQ8 30-148 (human entry), limits assumed)
T3 construct: also called cyno1
T3 chain: T1 chain

T4: NOD mouse SIRP-α (mouse (NOD strain))
T4 chain: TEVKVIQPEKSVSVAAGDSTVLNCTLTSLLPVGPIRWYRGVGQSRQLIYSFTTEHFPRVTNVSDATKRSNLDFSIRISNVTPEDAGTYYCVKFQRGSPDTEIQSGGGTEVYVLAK

T5: BALBc mouse SIRP-α (mouse (BALB/c strain))
T5 chain: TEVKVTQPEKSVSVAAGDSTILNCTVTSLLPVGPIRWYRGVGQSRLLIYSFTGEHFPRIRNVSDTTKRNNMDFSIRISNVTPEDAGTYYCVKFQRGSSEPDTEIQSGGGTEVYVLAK

T6: BL6 mouse SIRP-α (mouse (C57BL/6 strain), UniProt P97797 32-148)
T6 construct: also called C57BL/6
T6 sequence: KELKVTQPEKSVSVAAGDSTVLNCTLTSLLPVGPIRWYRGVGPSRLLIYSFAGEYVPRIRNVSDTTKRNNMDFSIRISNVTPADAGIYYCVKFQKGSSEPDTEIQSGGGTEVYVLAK

B1: antibody 119 variant Mut/mut_V34M (antibody, human IgG1, V domains shown)
VH: EVQLLESGGGVVQPGGSLRLSCAASGFSFSNFAMTWVRQAPGKGLEWVSTIGSGDTYYADSVKGRFTISRDNSKNTLYLQMNSLRAEDTAVYYCAKDSTVSWSGDFFDYWGQGTLVTVSS
VL: EIVLTQSPATLSVSPGERATLSCRASQNVKNDLAWYQQKPGQAPRLLIYAARIRETGIPARFSGSGSGTEFTLTISSLQSEDFAVYYCQQYYDWPPFTFGGGTKVEIK
notes: Human IgG1 with L234A/L235A/G237A/N297A; Labels are in the order VL/VH
B2: antibody 135 (antibody, V domains shown)
VH: DVQLVESGGGVVRPGESLRLSCAASGFSFSIYAMSWVRQAPGEGLEWVSTIGADDTYYADSVKGRFTISRDNSKNTLYLQMNSLRAEDTAVYYCAKDSTVGWSGDFFDYWGLGTLVTVSS
VL: EIVLTQSPATLSVSPGERVTFSCRASQNVRSDIAWYQQKPGQAPRLLIYAASSRDTGIPDRFSGSGSGTDFTLTISSLQSEDFGVYYCQQYYDWPPFTFGGGTKVEIK
notes: also called AB135; S135
B3: antibody 119 variant, light chain Mut / heavy chain wt (antibody, V domains shown)
VH: B1 VH with E1D, K43E, Q112L
VL: B1 VL
B4: antibody 119 variant, light chain wt / heavy chain Mut (antibody, human IgG1, V domains shown)
VH: B1 VH with M34V
VL: B1 VL with L21F, K39R, A60E, S76T
B5: antibody 135 variant, light chain Mut / heavy chain wt (antibody, V domains shown)
VH: B2 VH
VL: B2 VL with F21L, D60A
B6: antibody 135 variant, light chain wt / heavy chain Mut (antibody, V domains shown)
VH: B2 VH with D1E, R13Q, E16G, M34V, E43K, L112Q
VL: B2 VL

Target: T1, cynomolgus SIRP-α D1 domain (SEQ ID …)
Test: SPR, antibody immobilised on GLC chip
Protocol: (§1) All experiments were performed at 25° C. using a SPR-based ProteOn XPR36 biosensor (BioRad, Inc, Hercules, Calif.) equipped with GLC or NLC sensor chips. […] Purification was carried out by standard Protein A affinity column chromatography and eluted antibodies were stored in PBS buffer.
(§2) For the method using GLC chip, the analytes were injected and flowed over anti-SIRPα antibodies immobilized (˜1000 RUs) on GLC chips using Proteon™ Amine Coupling Kit. For the immobilization step, GLC chip was activated with EDAC/Sulpho-NHS 1:1 (Biorad) diluted 1/100 for 300 s at 25 μL/min. Anti-SIRPα antibodies were diluted to 80 nM concentration in 10 mM sodium acetate buffer pH 4.5 and immobilized to the chip at 30 μL/min for 50 s. Chip was inactivated with ethanolamine for 300 s at 25 μL/min. The analytes (e.g., SIRP-α from different species, SIRP-β, SIRP-γ) were injected in a “one-shot” kinetic mode at nominal concentrations of 100, 33, 11, 3.7, 1.2 and 0 nM. Association times were monitored for 90 s at 100 μL/min, and dissociation times were monitored for 1200 s. The surfaces were regenerated with a 2:1 v/v blend of Pierce IgG elution buffer/4M NaCl.

Binder	Kd
B1	0.118 nM

What follows are binders tested against T7, human SIRP-α v1 D1 domain (human, UniProt P78324 31-149) (assay: SPR, antibody immobilised on GLC chip).
T7 construct: also called human v1; human α v1
T7 sequence (P78324 31-149 limits assumed): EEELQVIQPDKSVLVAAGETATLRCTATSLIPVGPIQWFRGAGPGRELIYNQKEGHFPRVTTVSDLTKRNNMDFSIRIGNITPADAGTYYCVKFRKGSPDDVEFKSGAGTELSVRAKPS
Protocol: as §1, §2

Binder	Kd
B1	0.215 nM

These binders were tested against T8, human SIRP-α v2 D1 domain (human) (assay: SPR, antibody immobilised on GLC chip).
T8 construct: also called human v2; human α v2
T8 sequence (chain, as listed by the source limits assumed): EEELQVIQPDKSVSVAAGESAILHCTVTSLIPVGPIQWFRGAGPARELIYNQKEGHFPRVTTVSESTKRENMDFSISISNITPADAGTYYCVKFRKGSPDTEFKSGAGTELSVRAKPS
Protocol: as §1, §2

Binder	Kd
B1	0.0688 nM

Target: T2, mouse 129 SIRP-α
Test: SPR Koff +/-
How it was run: (§3)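 KD values were derived as kd/ka from apparent rate constants obtained by globally fitting double-referenced data to a simple Langmuir model. The data came from a ProteOn XPR36 biosensor run at 25° C in PBS pH 7.4 with 0.01% Tween-20. There, purified antibodies sat on a GLC chip by amine coupling or on an NLC chip by biotinylated Protein A capture, and SIRP analytes were injected in one-shot kinetic mode at nominal concentrations set from A280 absorbance.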

Binder	binding result
B2	no binding

These binders were tested against T9, human SIRPβ isoform 1 (human, UniProt O00241 30-148) (assay: SPR Koff +/-).
T9 construct: also called Beta; Human SIRPb
T9 sequence (O00241 30-148 limits assumed): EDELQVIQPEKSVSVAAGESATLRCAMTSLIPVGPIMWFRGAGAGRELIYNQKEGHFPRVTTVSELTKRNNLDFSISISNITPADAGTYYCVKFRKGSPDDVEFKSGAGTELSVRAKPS
How it was run: as §3

Binder	binding result
B2	binds

The binders below were run against T10, human SIRP-α v1 (human, UniProt P78324 31-149) (assay: SPR).
T10 construct: also called Human v1; Human V1
T10 sequence (P78324 31-149 limits assumed): as the sequence (P78324 31-149 limits assumed) above
How it was run: as §3

Binder	Kd
B2	0.151 nM

The binders below were run against T11, human SIRP-α v2 (human) (assay: SPR).
T11 construct: also called Human v2; Human V2
T11 sequence (chain, as listed by the source limits assumed): as the sequence (chain, as listed by the source limits assumed) above
How it was run: as §3

Binder	Kd
B2	0.029 nM

Target: T3, cynomolgus SIRP-α
Test: SPR, antibody on GLC chip
How it was run: (§4)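 Protein A-purified antibodies were diluted to 80 nM in 10 mM sodium acetate pH 4.5 and amine-coupled (~1000 RU) to a GLC chip of a ProteOn XPR36 biosensor. SIRP analytes were injected one-shot at 100, 33, 11, 3.7, 1.2 and 0 nM in PBS pH 7.4 with 0.01% Tween-20 at 25° C. Association ran 90 s at 100 μL/min and dissociation 1200 s. KD came from double-referenced data fitted globally to a Langmuir model, as kd/ka.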

Binder	Kd
B3	0.138 nM
B4	0.155 nM
B2	0.0969 nM
B5	0.102 nM
B6	0.125 nM

Target: T4, NOD mouse SIRP-α
Test: SPR, antibody on GLC chip
How it was run: as §4

Binder	binding result
B3	no binding
B4	no binding
B2	no binding
B5	no binding
B6	no binding

Each binder was assayed against T12, human SIRPγ isoform 1 (human, UniProt Q9P1W8 29-147) (assay: SPR, antibody on GLC chip).
T12 construct: also called Gamma; Human SIRPg
T12 sequence (Q9P1W8 29-147 limits assumed): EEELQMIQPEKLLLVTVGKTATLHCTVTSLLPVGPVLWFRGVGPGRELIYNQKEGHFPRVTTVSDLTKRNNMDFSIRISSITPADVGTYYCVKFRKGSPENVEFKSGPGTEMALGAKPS
How it was run: as §4

Binder	Kd
B3	0.233 nM
B2	0.539 nM
B5	0.522 nM
B6	0.779 nM

Each binder was assayed against T10, human SIRP-α v1 (assay: SPR, antibody on GLC chip).
How it was run: as §4

Binder	Kd
B3	0.214 nM
B4	0.254 nM
B2	0.151 nM
B5	0.149 nM
B6	0.184 nM

Each binder was assayed against T11, human SIRP-α v2 (assay: SPR, antibody on GLC chip).
How it was run: as §4

Binder	Kd
B3	0.0864 nM
B4	0.0694 nM
B2	0.029 nM
B5	0.0266 nM
B6	0.0197 nM

Target: T5, BALBc mouse SIRP-α
Test: SPR, antibody on GLC chip
How it was run: as §4

Binder	binding result
B3	no binding
B4	no binding
B2	no binding
B5	no binding
B6	no binding

Each binder was assayed against T6, BL6 mouse SIRP-α (assay: SPR, antibody on GLC chip).
How it was run: as §4

Binder	binding result
B3	no binding
B4	no binding
B2	no binding
B5	no binding
B6	no binding

Reference: patent US20210363269A1 (ALX ONCOLOGY, published 2021)
